Source: the nanobody polyreactivity screen of Harvey et al. (2022)

Assay: yeast display, Sf9 membrane polyspecificity reagent, FACS + sequencing; frameworks hold sequencing errors
Method in brief: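 Galactose induction of a Saccharomyces cerevisiae BJ5465 synthetic nanobody display library ran 36–48 hours. The cells were then stained for 1 hour at 4 °C with 10% biotinylated, detergent-solubilized Sf9 membrane reagent, pulled down on streptavidin microbeads and FACS-sorted into low and high (top ~1%) gates on expression and reagent-binding fluorescence. Labels for polyreactivity follow the gate of origin.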

QVQLVESGGDLVQAGGSLRLSCAATGFTFDYYAMGWYRQAPGKEREFVAAISRSGGRTYYADSVKGRFTISRDNAKNTVYLQMNSLKQEDTAVYYCAAGFVGERFDYWGQGTQVTVSS
polyreactivity (PSR sort gate): high polyreactivity

QVQLVESGGGLVQAGGSIRLTCAASGSTFWEYVMGWYRQAPGKERELVAAINSGGRTYYADSVKGRFTISRDNAKNTVYLQMNSLKPEDTAVYYCAADTVYRTHHYAQHYYYWGQGTQVTVSS
polyreactivity (PSR sort gate): high polyreactivity

QVQLVESGGGLVQAGGSLRLSCAASGSTIYGYAMGWYRQAPGKERELVAAISISGGGTYYADSVKGRFTISRDNAKNTVYLQMNSLKPEDTAVYYCARRYFWGQGTQVTVSS
polyreactivity (PSR sort gate): low polyreactivity

QDQLVESGGGLVQAGGSLRLSCAASGNIFTSNAMGWYRQAPGKERELVAANTSGGSTYYADSVKGRFTISRDNAKNTVYLQMYSLKPEDTAVYFCASLRRPHLRPYYYWGQGTQGTVSS
polyreactivity (PSR sort gate): high polyreactivity

QVQLVESGGGLVQAGGSLRLSCAASGSIFLYYAMGWYRQAPGKERELVAAISGRAGSTYYADSVKGRFTISRDNAKNTVYLQMNSLKPEDTSVYYCAAGYWHGYPGFKYYWGQGTQVTVSS
polyreactivity (PSR sort gate): low polyreactivity

QVQLVESGGGLVQAGGSLRLSCAASGFTFPGYARGWYRQAPGKERELVAAISRGGAGTYYADSVKGRFTISRDNAKNTVYLQMNSLKPEDTAVYYCAAVYYVDYPDGNYEYWGQGTQVTVSS
polyreactivity (PSR sort gate): high polyreactivity

QVQLVESGGGLVQAVCSLRLSCAASGIIFVYYVMGWYRQAPGKERELVASIDGSGGSTNYADSVKGRFTISRDNAKNTVYLQMNSLKPEDTAVYYCAASGRYDYDYWGQGTQVTVSS
polyreactivity (PSR sort gate): low polyreactivity

HVQLVDSGAGLVQAGGSLRLSCAASGRTFAYYAMGWYREATRKERELVAAIDSSGGSTYYADSVKGRFTISRDNAKNTVYLQMNSLKPEDTAVYYCAASYPYDRYDQGGYGYWGQGTQVTVSS
polyreactivity (PSR sort gate): low polyreactivity

QVQLQESGGRLVQAGDSQRLSCASSGNIFRFTDMGWYRQAPGKERELVAAINAGSTTYYADSVKGRFTISRDNAKNTVYLQMNSLKPEDTAFYHCNDPPVYSSTRYGYWGQGTQVTVAS
polyreactivity (PSR sort gate): high polyreactivity

QVQLVESGGGLVQAGGSLRLSCAASGSTFQVYAMGWYRQAPGKERELVATIRRTGGSTYYADSVKGRFTISRDNAKNTVYLQMNSLKPEDTAVYYCAARLGYAGNRDGSWGQGTQVTVSS
polyreactivity (PSR sort gate): high polyreactivity

QVQLVESGGGLVQAGGSLRLSCAASGRILSFYVMGWYRQAPGKERELVAAIRRGGSTYYADSVKGRFTISRDNAKNTVYLQMNSLKPEDTAVYYCNARQRPPPYYYWGQGTQVTVSS
polyreactivity (PSR sort gate): high polyreactivity

QVQLVESGGGLVQAGGSLRLSCAASGRIFAVYAMGWYRQAPGKERELVATISSSGSTHYADSVKGRFTISRDNAKNTVYLQMNSLKPEDTAVYYCNAGGSELKLGYDYWGQGTQVTVSS
polyreactivity (PSR sort gate): low polyreactivity

QVQLVESGGGLVQAGGSLRLSCAASGRTLLKNAMGWYRQAPGKEREFVAAITYSSGSTYYADSVKGRFTISRDNAKNTVYLQMNSLKPEDTAVYYCAKTNFSQSSRYNYDYWGQGTQVTVSS
polyreactivity (PSR sort gate): low polyreactivity

QGQLVDSGGGVVQAGGSLRLSCAASGRTFPVYAMGWYRQAPGKERELVAAISSRGGSTYYADSVKGRFTISRDNAKNTVYLQMNSLKPEDTAVYYCAARMPGPRRFTMDYWGQGTQVTVSS
polyreactivity (PSR sort gate): high polyreactivity

QVQLVESGGGLVQAGGSLRLSCAASGSTFDSYGMGWYRQAPGKERELVASISSRGGSTYYADSVKGRFTLSRDNAKNTVYFQMNSLKPEDTAVYYCAAKGPRRWGSGFDYWGQGTQVTVSS
polyreactivity (PSR sort gate): low polyreactivity

QVQLVESGGGLVQAGGSLRLSCAASGSTFFRYAMGWYRQAPGKEREFVAAITWSGTGTYYADSVKGRFTISRDNAENTVYLQMNSLKPEDTAVYYCNAEPFDLWAFYYGYVYGYYHWGQGTQVTVSS
polyreactivity (PSR sort gate): high polyreactivity

QVQLVESGGGLVQAGGSLRLSCAASGSTFGPYTMGWYRQAPGKERELVAAISYSGASTYYADSVKGRFTISRDNAMNTVYLQMNSLKPEDTAVYYCNTVYRYTRARYPYDYWGQGTQVTVSS
polyreactivity (PSR sort gate): high polyreactivity

QVQLVESGGGLVQAGGSLRLSCAASGYTFSRYAMGWYRQAPGKERELVAAISSRGGSTYYADSVKGRFTISRDNAKNTVYLQMNSLKPADTAVYYCAADYGVGYGIVGSYYWGQGTQVTVSS
polyreactivity (PSR sort gate): high polyreactivity

QVQLVESGGGLVQAGGSLRLSCAASGNIFYKNTMGWYRQAPGKERELVAAISVSGGGTYYADSVKGRFTISRDNAKNTVYLQMNSLKPEDTAVYYCAASHRRSGGQPRYYYWGQGTQVSVSS
polyreactivity (PSR sort gate): high polyreactivity

QVQLVESGGGLVQAGGSLRLSCAASGRTFPFYAMGWYRQAPGKERELVAAINSGGITNYADSVKGRFTISRDNAKYTVYLQMNSLKPEDTAVYYCAAKTAFYRERGYWGQGTQVTVSS
polyreactivity (PSR sort gate): low polyreactivity

QVQLVESGGGLVQAGGSLRLSCAASGFIFTLYAMGWYRQAPGKEREFVAAISWSDGSTTYADSVKGRFTISRDNAKNSVYSQMYSLKPEDTAVYYCADVTCSYIRGLVYHFYYWGQGTQVTVSS
polyreactivity (PSR sort gate): low polyreactivity

QVQLVESGGGLVQAGASLRLSCAASGFILYRYAMGWYRQAPGKERELVAAISRRGGSTYYADSVKGRFTISRDNAKNTVYLQMNSLKPEDTAVYYCAADARYTRYDYWGQGTQVTVSS
polyreactivity (PSR sort gate): high polyreactivity

QVQLVESGGGLVQAGGSLRLSCAASGSIFPAYAMGWYRQAPGKERELVAAITGSGGSTYYADSVKGRFTISRDNAKNTVYLQMNSLKPEDTAVYYCAATIRQYRRYDYWGQGTQVTVSS
polyreactivity (PSR sort gate): low polyreactivity

QVQLVESGGGLVQAGGSLRLICAASGSTFNSYTMGWYRQAPGKERELVAAISSGGITYYADSEKGRFTISRDNAKNTVYLLMNSLKPEDTAVYYCADRRYRYGYNYWGQGTQVTVSS
polyreactivity (PSR sort gate): high polyreactivity

QVQLVESGGGLDQAGGSLRLSCAPSGFIFIRNAMGWYRQAPGKDRELVAAISSGGRTYYADSVKGRFTISRDNAKNTVYLQMNSLKPEDTAVDYCATRPHRPRGQSVGQYDDWGQGTQVTVSS
polyreactivity (PSR sort gate): high polyreactivity

QFQLVESGGGLVQAGGSLRLSCAASGNIFGYYALGWYRQAPGKEREFVAAISGGDSTNYADSVKGRFTNSRDNAKNTVYLQMNSLQPEDTAVYYCARDYWSGASGGYPYDYWGQGTQVTVSS
polyreactivity (PSR sort gate): low polyreactivity

QVQLVESGGGLVQAGGSLRLSCAPSGRTFVSNAMGWYRQAPGKERELVAGINWTDDSTYYADSVKGRFTISRDNAKNTVYLQMNSLKPEDTGVYFCGAYSWEFAWPRFDYWGQGTKVTVSS
polyreactivity (PSR sort gate): low polyreactivity

QVQLVESGGGLVQAGGSLRLSCAASGLTFGDYAMGWYRQAPGKEREFVAAISSSTGRTYYADSVKGRFTISRDNAKNTVYLQMNSLKPEDTAVYYCAVRYIYPSHYGYDYWGQGTQVSVSS
polyreactivity (PSR sort gate): low polyreactivity

QGQLVDSGGGVVQAGGSLRLSSAASGRSFGRNVMGWYRPAPGKERELVAAIRYSSGGTYYADSVKGRFTISRDYAKNTVDLQMNSLKPEDTAVYYCAARFFRGYRGGDWGQGTQVTVSS
polyreactivity (PSR sort gate): high polyreactivity

QVQLEESGGGLVQAGGSLRLSCAATGSTFYDYAMGWYRQAPGKERELVASITFTGGSTYYADSVKGRFTISRDNAKNTVYLQMISLKPEDTAVYFCAAYGWRVHDRWFFERDYWGLGTQVTVSS
polyreactivity (PSR sort gate): high polyreactivity

QVQLVESGGGLVQAGGSLRLSCAASGFIFGHYTMGWYRQAPGKERELVAAITTGGRTYYADSVKGRFTISRDNAKNTVYLQMNSLKPEDTAVYYCAARGYIWGQGTQVTVSS
polyreactivity (PSR sort gate): high polyreactivity

QDQLVESGGGLVQAGGSLRLRCADYGSTFYYYAMGWYRQAPGKERELVAVITRGGGTYYADSVKGRFTISRDNAKNTVYLQMNSLKPEDTAVYYCNARQRSSTRKGYNYWGQGTEVTVSS
polyreactivity (PSR sort gate): high polyreactivity
